Source: the supplement of paper PMC9732359
± gives the uncertainty stated by the source.

Experiment: protein stability index of a GFP-peptide fusion (yeast GPS) (PSI 1-4); higher = more stable; sorted into four equal gates, so the index is relative within each strain
Outline: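 For each peptide, the protein stability index sums the read frequency in every gate after multiplying it by the gate number. Read frequencies came from plasmids that were PCR-amplified from each gate and Illumina-sequenced, with reads assigned to strains by barcodes. The gates were four equal bins of GFP/Cherry fluorescence ratio applied to mid-log yeast in leucine-free medium carrying a pooled library of tiled 17-residue yeast protein peptides fused downstream of GFP on a Cherry-expressing plasmid.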

## LLVQSLNDMVLELKENY [NNF1]
doa10∆
  protein stability index: 2.75 ± 0.14
pdr5∆
  protein stability index: 1.52 ± 0.1

## VTIIEPKEEEPILAPSV [RPS3]
doa10∆
  protein stability index: 3.09 ± 0.13
pdr5∆
  protein stability index: 2.59 ± 0.22
san1∆
  protein stability index: 3.01 ± 0.14
ubr1∆
  protein stability index: 2.67 ± 0.13

## VGHLSILPQQSKLKLKN [ECM29]
doa10∆
  protein stability index: 1.91 ± 0.16
pdr5∆
  protein stability index: 2.31 ± 0.1
san1∆
  protein stability index: 1.88 ± 0.13
ubr1∆
  protein stability index: 2.5 ± 0.15

## NVVEVMDMNEIEDKENS [RPT5]
doa10∆
  protein stability index: 3.02 ± 0.087
pdr5∆
  protein stability index: 2.58 ± 0.066
san1∆
  protein stability index: 2.26 ± 0.067
ubr1∆
  protein stability index: 2.71 ± 0.059

## KTDTKVSFRTHNSHLSL [SRP21]
doa10∆
  protein stability index: 3.03 ± 0.059
pdr5∆
  protein stability index: 3.06 ± 0.053
san1∆
  protein stability index: 2.92 ± 0.053
ubr1∆
  protein stability index: 3.15 ± 0.048

## AEFILKNRSTIFWGIRL [BRR2]
doa10∆
  protein stability index: 2.73 ± 0.056
pdr5∆
  protein stability index: 1.93 ± 0.063
san1∆
  protein stability index: 1.52 ± 0.089
ubr1∆
  protein stability index: 1.77 ± 0.048

## YSSAPLRTVKEVQFGLF [RPO21]
pdr5∆
  protein stability index: 2.27 ± 0.2

## TIDEQSQISPEKQTPNK [RPN1]
doa10∆
  protein stability index: 3.24 ± 0.17
pdr5∆
  protein stability index: 3.57 ± 0.15
san1∆
  protein stability index: 3.28 ± 0.12
ubr1∆
  protein stability index: 3.22 ± 0.056

## RTPHEIQEANSVDMSAL [RIP1]
pdr5∆
  protein stability index: 3.46 ± 0.21
ubr1∆
  protein stability index: 3.24 ± 0.076

## GTNPLSSDGAYTEQFQH [SSN2]
doa10∆
  protein stability index: 3.23 ± 0.093
pdr5∆
  protein stability index: 3.09 ± 0.075
san1∆
  protein stability index: 2.96 ± 0.055
ubr1∆
  protein stability index: 3.06 ± 0.062

## ELHKEGTISKLENKENG [SMC2]
doa10∆
  protein stability index: 2.01 ± 0.12
pdr5∆
  protein stability index: 2.61 ± 0.097
san1∆
  protein stability index: 1.4 ± 0.076
ubr1∆
  protein stability index: 1.62 ± 0.075

## AALDITNVQRIAAYIRR [SMC1]
doa10∆
  protein stability index: 3.08 ± 0.16
pdr5∆
  protein stability index: 3.07 ± 0.17
san1∆
  protein stability index: 3.24 ± 0.13
ubr1∆
  protein stability index: 3.09 ± 0.091

## SNKKETKKKRKPTEVND [ITC1]
doa10∆
  protein stability index: 3.15 ± 0.078
pdr5∆
  protein stability index: 3.31 ± 0.074
san1∆
  protein stability index: 3.26 ± 0.07
ubr1∆
  protein stability index: 3.23 ± 0.062

## QINKAQILENYNALFQQ [YJL039C/NUP192]
doa10∆
  protein stability index: 2.81 ± 0.068
pdr5∆
  protein stability index: 3.12 ± 0.058
san1∆
  protein stability index: 2.73 ± 0.065
ubr1∆
  protein stability index: 3.03 ± 0.047

## NKLDEYHGLYTNYEMSY [LIN1]
doa10∆
  protein stability index: 1.56 ± 0.065
pdr5∆
  protein stability index: 1.78 ± 0.059
san1∆
  protein stability index: 1.78 ± 0.093
ubr1∆
  protein stability index: 1.6 ± 0.068

## VLAHRIGLVPLKVDPDM [RPC40]
doa10∆
  protein stability index: 2.94 ± 0.27

## NRLEIKYHNDLIEKEIQ [SMC1]
doa10∆
  protein stability index: 2.35 ± 0.18
pdr5∆
  protein stability index: 2.51 ± 0.083
ubr1∆
  protein stability index: 2.42 ± 0.13

## LFLRGDSVIVVLKTPVE [SMD2]
doa10∆
  protein stability index: 2.63 ± 0.12
pdr5∆
  protein stability index: 2.42 ± 0.093
san1∆
  protein stability index: 2.78 ± 0.083
ubr1∆
  protein stability index: 2.38 ± 0.14

## ILTKEVQGSTLAQLTSK [RPS1A]
doa10∆
  protein stability index: 3.27 ± 0.084
pdr5∆
  protein stability index: 3 ± 0.08
san1∆
  protein stability index: 3.2 ± 0.072
ubr1∆
  protein stability index: 2.93 ± 0.15

## NATEVQKESDAKNETNS [ITC1]
doa10∆
  protein stability index: 2.67 ± 0.077
pdr5∆
  protein stability index: 3.05 ± 0.11
san1∆
  protein stability index: 2.67 ± 0.11
ubr1∆
  protein stability index: 2.59 ± 0.2

## GSTTIEKKNDENSTSNS [YLR335W/NUP2]
doa10∆
  protein stability index: 3.1 ± 0.085
pdr5∆
  protein stability index: 3.18 ± 0.097
san1∆
  protein stability index: 3.18 ± 0.06
ubr1∆
  protein stability index: 3.17 ± 0.044

## MLGEDEGNTVLEKGNNP [SWP82]
doa10∆
  protein stability index: 3.67 ± 0.13
pdr5∆
  protein stability index: 3.22 ± 0.19
san1∆
  protein stability index: 3.11 ± 0.099
ubr1∆
  protein stability index: 3.69 ± 0.16

## KKVGITGKYGVRYGSSL [RPL43A]
doa10∆
  protein stability index: 3.16 ± 0.065
pdr5∆
  protein stability index: 3.28 ± 0.051
san1∆
  protein stability index: 3.3 ± 0.045
ubr1∆
  protein stability index: 3.15 ± 0.033

## ANGTVVSFIKNGEEIVG [MTR3]
doa10∆
  protein stability index: 1.34 ± 0.07
pdr5∆
  protein stability index: 1.6 ± 0.13
san1∆
  protein stability index: 1.45 ± 0.21
ubr1∆
  protein stability index: 1.91 ± 0.11

## PTSVKLLKTTVPIVSKK [POP3]
doa10∆
  protein stability index: 3.21 ± 0.1
pdr5∆
  protein stability index: 2.94 ± 0.068
san1∆
  protein stability index: 2.86 ± 0.083
ubr1∆
  protein stability index: 3 ± 0.075

## LGSQSKSDEGGSYLCTS [YOR098C/NUP1]
doa10∆
  protein stability index: 3.26 ± 0.11
pdr5∆
  protein stability index: 2.98 ± 0.07
san1∆
  protein stability index: 3.14 ± 0.069
ubr1∆
  protein stability index: 2.71 ± 0.081

## DTNVVLQAIDLLENPNC [DIS3]
doa10∆
  protein stability index: 2.84 ± 0.07
pdr5∆
  protein stability index: 2.75 ± 0.063
san1∆
  protein stability index: 2.63 ± 0.074
ubr1∆
  protein stability index: 2.73 ± 0.046

## CIPLVGISVPFHSTYLM [FAS1]
doa10∆
  protein stability index: 1.43 ± 0.041
pdr5∆
  protein stability index: 1.3 ± 0.04
san1∆
  protein stability index: 1.27 ± 0.069
ubr1∆
  protein stability index: 1.39 ± 0.027

## TQLDDLQHELMISIIKL [YML103C/NUP188]
pdr5∆
  protein stability index: 2.29 ± 0.1
san1∆
  protein stability index: 2.19 ± 0.28
ubr1∆
  protein stability index: 2.51 ± 0.093
